Columns and labels:
FLAG-GFP-RADX R389E = FLAG-GFP-RADX R389E (human, UniProt Q6NSI4 1-855, R389E); assay: pull-down
[1] = target: FLAG-GFP-RADX alanine mutant of residues 365-368 (human, UniProt Q6NSI4 1-855, 4-residue alanine mutation of residues 365-368); assay: pull-down
FLAG-GFP-RADX = FLAG-GFP-RADX (human, UniProt Q6NSI4 1-855); assay: pull-down
MBP-RADX = MBP-RADX (Homo sapiens, UniProt Q6NSI4 1-855); assay: EMSA
MBP-RADX QVPK = MBP-RADX QVPK (Homo sapiens, UniProt Q6NSI4 1-855, Q451A;V452A;P453A;K454A); assay: EMSA

binding result (FLAG-GFP-RADX R389E)	binding result [1]	binding result (FLAG-GFP-RADX)	Binder	binding result (MBP-RADX)	binding result (MBP-RADX QVPK)
binds	binds	binds	Human RAD51 (natural protein, UniProt Q06609 1-339, looked up) MAMQMQLEANADTSVEEESFGPQPISRLEQCGINANDVKKLEEAGFHTVEAVAYAPKKELINIKGISEAKADKILAEAAKLVPMGFTTATEFHQRRSEIIQITTGSKELDKLLQGGIETGSITEMFGEFRTGKTQICHTLAVTCQLPIDRGGGEGKAMYIDTEGTFRPERLLAVAERYGLSGSDVLDNVAYARAFNTDHQTQLLYQASAMMVESRYALLIVDSATALYRTDYSGRGELSARQMHLARFLRMLLRLADEFGVAVVITNQVVAQVDGAAMFAADPKKPIGGNIIAHASTTRLYLRKGRGETRICKIYDSPCLPEAEAMFAINADGVGDAKD		
		binds	RAD51 K133R (natural protein, human, UniProt Q06609 1-339, looked up) MAMQMQLEANADTSVEEESFGPQPISRLEQCGINANDVKKLEEAGFHTVEAVAYAPKKELINIKGISEAKADKILAEAAKLVPMGFTTATEFHQRRSEIIQITTGSKELDKLLQGGIETGSITEMFGEFRTGRTQICHTLAVTCQLPIDRGGGEGKAMYIDTEGTFRPERLLAVAERYGLSGSDVLDNVAYARAFNTDHQTQLLYQASAMMVESRYALLIVDSATALYRTDYSGRGELSARQMHLARFLRMLLRLADEFGVAVVITNQVVAQVDGAAMFAADPKKPIGGNIIAHASTTRLYLRKGRGETRICKIYDSPCLPEAEAMFAINADGVGDAKD		
			dT60 (ssDNA) DNA: TTTTTTTTTTTTTTTTTTTTTTTTTTTTTTTTTTTTTTTTTTTTTTTTTTTTTTTTTTTT	binds	binds

— PMC7935748 (Molecular cell, 2021)
